The target in this data set is MeCP2(74-172) WT (human, UniProt P51608 74-172). Kind of data set: EMSA; subtly but consistently higher affinity for mCG; 10 mM Tris-HCl (pH not given), 50 mM KCl, 0.5 mM MgCl2, 0.1 mM EDTA, 5% glycerol, 0.1 mg/ml BSA, RT 30 min; 0-500 ng protein, 200 ng probe; 6% acrylamide, 1X TAE, ethidium bromide. The settings on record: protein: recombinant; blunt.
MeCP2(74-172) WT, sequence (P51608 74-172): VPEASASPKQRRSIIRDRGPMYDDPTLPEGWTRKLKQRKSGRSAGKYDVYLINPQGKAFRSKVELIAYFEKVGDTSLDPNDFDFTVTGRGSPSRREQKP

B1: CpG methylated probe (dsDNA)
DNA 1: CTAAAGGAAAAGTGACGCACTGTTTTACACCTTGGTTTT
DNA 2: AAAACCAAGGTGTAAAACAGTGCGTCACTTTTCCTTTAG
modifications: symmetric methyl-C at the only CpG (C16 of S1, C23 of S2; position inferred, bold marks lost)
For the molecule B1, the binding result is “binds”.

The record behind these values is PMC4915018, “Brain phosphorylation of MeCP2 at serine 164 is developmentally regulated and globally alters its chromatin association”.
